# Legend:
# [1] = tested on: human anti-chimeric antibody (HACA) against kappamab; assay: Human anti-chimeric antibody (HACA) sandwich ELISA; assay type: in vivo; conditions: Day 45 post infusion, any patient
# Method: Blood samples were taken at pre-infusion and at completion of the treatment phase (Day 45 post infusion) for measurement of HACA responses. The presence of HACA was measured using a validated sandwich ELISA. Briefly, kappamab was immobilized on ELISA plates and the captured antibodies were detected using biotinylated kappamab and ExtrAvidie-alkaline phosphatase (Sigma, USA) followed by the alkaline phosphatase (AP) substrate. Goat anti-human IgG was used as the positive control for the assay.
# serum λFLC = assay: Serum λFLC (FreeLite assay); assay type: in vivo, human; conditions: throughout the study
# Text: Serum FLC levels were quantified using the FreeLite™ assay (The Binding Site Group Ltd, Birmingham, UK). […] Twenty-four-hour urine collection for urine protein electrophoresis immunofixation, urine FLC measurement (FreeLite™ assay), and creatinine clearance were collected on the day of infusion and on Day 45.
# [2] = Phase 1 safety and tolerability of single IV infusion of kappamab (adverse events, laboratory, ECG)
# Method: Patients on maintenance therapy (thalidomide or lenalidomide) were also eligible for inclusion. Patients were excluded from the study if their serum κFLC was greater than 250 mg/L.
# The pharmacodynamics of serum κFLC was also assessed. Drug-target modulation of cell signalling pathways was determined by measuring pro-inflammatory and anti-inflammatory cytokines, chemokines, and growth factors in patient serum at specific time intervals.
# After providing HREC-approved consent, patients were screened and assessed for study eligibility.
# Within each dose cohort only 1 patient per week was to be treated. […] Premedication was not mandated, however, paracetamol (acetaminophen), corticosteroids, and antihistamines were allowed for the treatment of infusion reactions.
# Evaluation of safety and tolerability during treatment included vital signs, physical examination, electrocardiogram (ECG), haematology assessments, clinical chemistry, C-reactive protein, β2-microglobulin, immunoglobulin quantification, urinalysis, creatinine clearance, collection of adverse events (AEs), and drug-induced toxicity. All AEs were graded using the Cancer Therapy Evaluation Program Common Terminology Criteria for Adverse Events, version 3.0.
# [3] = All treatment-emergent AEs, Grade 1-3, 0.3 mg/kg (N = 3)
# [4] = All treatment-emergent AEs, Grade 1-3, 1.0 mg/kg (N = 3)
# [5] = All treatment-emergent AEs, Grade 1-3, 3.0 mg/kg (N = 3)
# [6] = All treatment-emergent AEs, Grade 1-3, 10 mg/kg (N = 3)
# [7] = All treatment-emergent AEs, Grade 1-3, Overall (N = 12)
# [8] = All treatment-emergent AEs, Grade 4/5, 0.3 mg/kg (N = 3)
# [9] = All treatment-emergent AEs, Grade 4/5, 1.0 mg/kg (N = 3)
# [10] = All treatment-emergent AEs, Grade 4/5, 3.0 mg/kg (N = 3)
# [11] = All treatment-emergent AEs, Grade 4/5, 10 mg/kg (N = 3)
# [12] = All treatment-emergent AEs, Grade 4/5, Overall (N = 12)
# [13] = All treatment-emergent AEs, Total, 0.3 mg/kg (N = 3)
# [14] = All treatment-emergent AEs, Total, 1.0 mg/kg (N = 3)
# [15] = All treatment-emergent AEs, Total, 3.0 mg/kg (N = 3)
# [16] = All treatment-emergent AEs, Total, 10 mg/kg (N = 3)
# [17] = All treatment-emergent AEs, Total, Overall (N = 12)
# [18] = Possibly, probably, or definitely related AEs, Grade 1-3, 0.3 mg/kg (N = 3)
# [19] = Possibly, probably, or definitely related AEs, Grade 1-3, 1.0 mg/kg (N = 3)
# [20] = Possibly, probably, or definitely related AEs, Grade 1-3, 3.0 mg/kg (N = 3)
# [21] = Possibly, probably, or definitely related AEs, Grade 1-3, 10 mg/kg (N = 3)
# [22] = Possibly, probably, or definitely related AEs, Grade 1-3, Overall (N = 12)
# [23] = Possibly, probably, or definitely related AEs, Grade 4/5, 0.3 mg/kg (N = 3)
# [24] = Possibly, probably, or definitely related AEs, Grade 4/5, 1.0 mg/kg (N = 3)
# [25] = Possibly, probably, or definitely related AEs, Grade 4/5, 3.0 mg/kg (N = 3)
# [26] = Possibly, probably, or definitely related AEs, Grade 4/5, 10 mg/kg (N = 3)
# [27] = Possibly, probably, or definitely related AEs, Grade 4/5, Overall (N = 12)
# [28] = Possibly, probably, or definitely related AEs, Total, 0.3 mg/kg (N = 3)
# [29] = Possibly, probably, or definitely related AEs, Total, 1.0 mg/kg (N = 3)
# [30] = Possibly, probably, or definitely related AEs, Total, 3.0 mg/kg (N = 3)
# [31] = Possibly, probably, or definitely related AEs, Total, 10 mg/kg (N = 3)
# [32] = Possibly, probably, or definitely related AEs, Total, Overall (N = 12)
# [33] = Related AEs by System Organ Class, Overall total, 0.3 mg/kg (N = 3)
# [34] = Related AEs by System Organ Class, Overall total, 1.0 mg/kg (N = 3)
# [35] = Related AEs by System Organ Class, Overall total, 3.0 mg/kg (N = 3)
# [36] = Related AEs by System Organ Class, Overall total, 10 mg/kg (N = 3)
# [37] = Related AEs by System Organ Class, Overall total, Overall (N = 12)
# [38] = Related AEs: Dyspnea, 10 mg/kg (N = 3)
# [39] = Related AEs: Dyspnea, Overall (N = 12)
# [40] = Related AEs: Eructation, 10 mg/kg (N = 3)
# [41] = Related AEs: Eructation, Overall (N = 12)
# [42] = Related AEs: Flushing, 10 mg/kg (N = 3)
# [43] = Related AEs: Flushing, Overall (N = 12)
# [44] = Related AEs: Gastrointestinal disorders, Total, 10 mg/kg (N = 3)
# [45] = Related AEs: Gastrointestinal disorders, Total, Overall (N = 12)
# [46] = Related AEs: Musculoskeletal and connective tissue disorders, Total, 10 mg/kg (N = 3)
# [47] = Related AEs: Musculoskeletal and connective tissue disorders, Total, Overall (N = 12)
# [48] = Related AEs: Nausea, 10 mg/kg (N = 3)
# [49] = Related AEs: Nausea, Overall (N = 12)
# [50] = Related AEs: Pain in extremity, 10 mg/kg (N = 3)
# [51] = Related AEs: Pain in extremity, Overall (N = 12)
# [52] = Related AEs: Respiratory, thoracic & mediastinal disorders, Total, 10 mg/kg (N = 3)
# [53] = Related AEs: Respiratory, thoracic & mediastinal disorders, Total, Overall (N = 12)
# [54] = Related AEs: Vascular disorders, Total, 10 mg/kg (N = 3)
# [55] = Related AEs: Vascular disorders, Total, Overall (N = 12)
substance,measurement,setting,value
"kappamab: humanized form of K121 anti-KMA antibody; VH SEQ ID NO: 1, VL SEQ ID NO: 2",HACA response to kappamab,[1],no antibody responses to kappamab were detected
same,Serum λFLC concentration,serum λFLC,no apparent change
same,DLT or discontinuation due to an AE,[2]; 0.3-10 mg/kg,no patients who experienced a DLT or discontinued the study due to an AE
same,Patients with nausea (most frequently reported AE),[2]; 2/12 patients,17%
same,Patients who experienced study drug-related AEs,"[2]; 2/12 patients, at the highest dose level (10 mg/kg)",17%
same,AEs that were grade 1 or 2,[2]; 17/18 events,94%
same,Number of patients with AEs (%),[2]; [3],2 (66%)
same,number of AEs,[2]; [3],4
same,Number of patients with AEs (%),[2]; [4],3 (100%)
same,number of AEs,[2]; [4],3
same,Number of patients with AEs (%),[2]; [5],1 (33%)
same,number of AEs,[2]; [5],2
same,Number of patients with AEs (%),[2]; [6],2 (67%)
same,number of AEs,[2]; [6],9
same,Number of patients with AEs (%),[2]; [7],8 (67%)
same,number of AEs,[2]; [7],18
same,Number of patients with AEs (%),[2]; [8],0 (0%)
same,number of AEs,[2]; [8],0
same,Number of patients with AEs (%),[2]; [9],0 (0%)
same,number of AEs,[2]; [9],0
same,Number of patients with AEs (%),[2]; [10],0 (0%)
same,number of AEs,[2]; [10],0
same,Number of patients with AEs (%),[2]; [11],0 (0%)
same,number of AEs,[2]; [11],0
same,Number of patients with AEs (%),[2]; [12],0 (0%)
same,number of AEs,[2]; [12],0
same,Number of patients with AEs (%),[2]; [13],2 (67%)
same,number of AEs,[2]; [13],4
same,Number of patients with AEs (%),[2]; [14],3 (100%)
same,number of AEs,[2]; [14],3
same,Number of patients with AEs (%),[2]; [15],1 (33%)
same,number of AEs,[2]; [15],2
same,Number of patients with AEs (%),[2]; [16],2 (67%)
same,number of AEs,[2]; [16],9
same,Number of patients with AEs (%),[2]; [17],8 (67%)
same,number of AEs,[2]; [17],18
same,Patients who experienced treatment-emergent AEs,"[2]; Eight of the 12 patients, all doses",67%
same,Number of patients with AEs (%),[2]; [18],0 (0%)
same,number of AEs,[2]; [18],0
same,Number of patients with AEs (%),[2]; [19],0 (0%)
same,number of AEs,[2]; [19],0
same,Number of patients with AEs (%),[2]; [20],0 (0%)
same,number of AEs,[2]; [20],0
same,Number of patients with AEs (%),[2]; [21],2 (67%)
same,number of AEs,[2]; [21],6
same,Number of patients with AEs (%),[2]; [22],2 (17%)
same,number of AEs,[2]; [22],6
same,Number of patients with AEs (%),[2]; [23],0 (0%)
same,number of AEs,[2]; [23],0
same,Number of patients with AEs (%),[2]; [24],0 (0%)
same,number of AEs,[2]; [24],0
same,Number of patients with AEs (%),[2]; [25],0 (0%)
same,number of AEs,[2]; [25],0
same,Number of patients with AEs (%),[2]; [26],0 (0%)
same,number of AEs,[2]; [26],0
same,Number of patients with AEs (%),[2]; [27],0 (0%)
same,number of AEs,[2]; [27],0
same,Number of patients with AEs (%),[2]; [28],0 (0%)
same,number of AEs,[2]; [28],0
same,Number of patients with AEs (%),[2]; [29],0 (0%)
same,number of AEs,[2]; [29],0
same,Number of patients with AEs (%),[2]; [30],0 (0%)
same,number of AEs,[2]; [30],0
same,Number of patients with AEs (%),[2]; [31],2 (67%)
same,number of AEs,[2]; [31],6
same,Number of patients with AEs (%),[2]; [32],2 (17%)
same,number of AEs,[2]; [32],6
same,Number of patients with AEs (%),[2]; [33],0[0]
same,number of AEs,[2]; [33],0[0]
same,Number of patients with AEs (%),[2]; [34],0[0]
same,number of AEs,[2]; [34],0[0]
same,Number of patients with AEs (%),[2]; [35],0[0]
same,number of AEs,[2]; [35],0[0]
same,Number of patients with AEs (%),[2]; [36],2 (67%)
same,number of AEs,[2]; [36],6
same,Number of patients with AEs (%),[2]; [37],2 (17%)
same,number of AEs,[2]; [37],6
same,Number of patients with AEs (%),[2]; [38],1(33%)
same,number of AEs,[2]; [38],1
same,Number of patients with AEs (%),[2]; [39],1 (8.3%)
same,number of AEs,[2]; [39],1
same,Number of patients with AEs (%),[2]; [40],1 (33%)
same,number of AEs,[2]; [40],1
same,Number of patients with AEs (%),[2]; [41],1 (8.3%)
same,number of AEs,[2]; [41],1
same,Number of patients with AEs (%),[2]; [42],1 (33%)
same,number of AEs,[2]; [42],1
same,Number of patients with AEs (%),[2]; [43],1 (8.3%)
same,number of AEs,[2]; [43],1
same,Number of patients with AEs (%),[2]; [44],2 (67%)
same,number of AEs,[2]; [44],3
same,Number of patients with AEs (%),[2]; [45],2 (17%)
same,number of AEs,[2]; [45],3
same,Number of patients with AEs (%),[2]; [46],1 (33%)
same,number of AEs,[2]; [46],1
same,Number of patients with AEs (%),[2]; [47],1 (8.3%)
same,number of AEs,[2]; [47],1
same,Number of patients with AEs (%),[2]; [48],2 (67%)
same,number of AEs,[2]; [48],2
same,Number of patients with AEs (%),[2]; [49],2 (8.3%)
same,number of AEs,[2]; [49],2
same,Number of patients with AEs (%),[2]; [50],1 (33%)
same,number of AEs,[2]; [50],1
same,Number of patients with AEs (%),[2]; [51],1 (8.3%)
same,number of AEs,[2]; [51],1
same,Number of patients with AEs (%),[2]; [52],1 (33%)
same,number of AEs,[2]; [52],1
same,Number of patients with AEs (%),[2]; [53],1 (8.3%)
same,number of AEs,[2]; [53],1
same,Number of patients with AEs (%),[2]; [54],1 (33%)
same,number of AEs,[2]; [54],1
same,Number of patients with AEs (%),[2]; [55],1 (8.3%)
same,number of AEs,[2]; [55],1
same,Time to resolution of infusion reaction symptoms,"[2]; after infusion was stopped, without treatment",≤ 30 min
same,Immune complex formation or serum sickness,[2]; any patient,no evidence of immune complex formation or serum sickness
same,Deaths or other serious AEs,[2]; during the study,no deaths or other serious AEs
same,"Serum immunoglobulin levels, clinical chemistry, haematology, urinalysis",[2]; during the study,no dose-related trends
same,ECG QTc intervals,[2]; in vivo,no prolongation of QTc intervals
same,ECOG performance status scores,[2]; in vivo,no effect
same,Lactate dehydrogenase levels or vital signs,[2]; in vivo,No changes from baseline
same,Serum C-reactive protein levels,[2]; in vivo,no apparent dose-related trend
same,Infusion reaction,"[2]; one patient, 10 mg/kg, flushing, dyspnea, nausea after start of infusion",grade 1 infusion reaction
same,Maximum tolerated dose,[2]; patients treated up to 10 mg/kg,No maximum tolerated dose of kappamab was defined
same,Kidney function,"[2]; serum blood urea nitrogen, serum creatinine, creatinine clearance",no drug-related effects on kidney function
